Results from US20140086913A1 (Gilead, published 2014).

Columns and labels:
[1] = target: T1, human ECD-DDR1-His protein (human, UniProt Q08345 21-416); experiment: ELISA, coated antigen, apparent KD
T1 construct: also called huDDR1-ECD-His; DDR1ECD-6Xhis; not shown: His tag
Procedure, shortened: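 Plates coated overnight at 4° C with 2 μg/mL purified tagged DDR1 ECD protein, BSA-blocked; serially diluted murine anti-DDR1 mAbs bound 1 hr at room temperature, detected with anti-mouse IgG-HRP and TMB (OD 450). Apparent KD taken as C-parameter of 4-parameter logistic fit of OD versus antibody concentration.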

[2] = target: DDR1 with a ProLink Tag (PK) in engineered U20S cells (DiscoveRx), Q08345; experiment: cell-based or functional assay
[3] = target: human DDR1 (isoform B) stably expressed on HEK293 cells (human) (UniProt Q08345); experiment: flow cytometry, HEK293/hDDR1
[4] = target: DDR1 endogenously expressed on human cancer cell lines (T47D, HCT-116, A431) (human) (UniProt Q08345); experiment: flow cytometry, HCT116 cells
mouse ECD-DDR1-Fc = target: T2, mouse ECD-DDR1-Fc (mouse; human, UniProt Q03146 22-414); experiment: ELISA, coated antigen
T2 construct: also called mouse DDR1-ECD; wild-type mouse DDR1-ECD; not shown: human IgG1 Fc of the vector pFuse-hIgG1-Fc1 (Invivogen)
T2 sequence: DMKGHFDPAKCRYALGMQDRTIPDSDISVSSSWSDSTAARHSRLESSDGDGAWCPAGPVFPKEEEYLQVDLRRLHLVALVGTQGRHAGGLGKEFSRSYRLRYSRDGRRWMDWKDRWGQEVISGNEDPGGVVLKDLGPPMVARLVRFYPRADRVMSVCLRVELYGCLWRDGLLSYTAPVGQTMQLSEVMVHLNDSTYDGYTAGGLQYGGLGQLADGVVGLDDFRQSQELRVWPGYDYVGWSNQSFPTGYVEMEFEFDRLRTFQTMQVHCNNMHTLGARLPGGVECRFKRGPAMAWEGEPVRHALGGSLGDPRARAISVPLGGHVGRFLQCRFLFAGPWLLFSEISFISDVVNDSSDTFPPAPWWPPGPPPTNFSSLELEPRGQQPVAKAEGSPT
Protocol: (§1) In this study, ELISA was used to determine the affinity of murine anti-DDR1 monoclonal antibodies to the extracellular domain (ECD) of either human or murine DDR1. A 96-well MaxiSorb ELISA plates (Nunc) were coated with 2 μg/mL of one of three purified recombinant tagged proteins: human ECD-DDR1-His protein, human ECD-DDR1-Fc, or mouse ECD-DDR1-Fc overnight at 4° C. The next day, the plates were blocked with 5% bovine serum albumin (BSA, Jackson Immunoresearch) prior to the addition of serially diluted anti-DDR1 monoclonal antibodies. Antibodies were incubated for 1 hr at room temperature. The binding of antibody to the antigen was detected by incubating samples with anti-mouse IgG-HRP (horse radish peroxidase) secondary detection antibody (Jackson Immunoresearch) for 1 hr. After a washing step, 3,3′,5,5″-tetramethylbenzidine (TMB) reagent was added for HRP to produce a colorimetric signal. The reaction was stopped by addition of 1M hydrochloric acid after 2 minutes and measured for absorbance (optical density, OD) at 450λ on a Molecular Devices plate reader. The OD values were plotted against antibody concentration and fitted using a using 4-parameter logistic equation in SoftMax software (Molecular Devices). The apparent affinity constant (KD) was taken from the C-parameter of the equation (y=(A−D)/(1+(x/C)̂B)+D). The apparent affinity constants were summarized (in some cases shown as average values) in Table 10 below. Lower value indicates higher binding affinity of the antibody to the antigen.

[5] = target: DDR1 endogenously expressed on human cancer cell lines (T47D, HCT-116, A431) (human) (UniProt Q08345); experiment: flow cytometry, T47D cells
[6] = target: T3, DDR1ECD-Fc (R&D Systems, Catalog #2396-DR) (human, UniProt Q08345 21-416); experiment: ELISA, coated antigen, apparent KD; human ECD-DDR1-Fc coated on the plate, not the His-tagged or mouse antigen
T3 construct: range 21-416; construct as described for the bought immunogen; also called human ECD-DDR1-Fc; Fc-ECD-DR1; not shown: human IgG1, Pro100-Lys330
Protocol: as §1, with “The apparent affinity constants were summarized (in some cases shown as average values) in Table 10 below. Lower value indicates higher binding affinity of the antibody to the antigen.” left out

[7] = target: T4, human DDR2 stably expressed on HEK293 cells (human, UniProt Q16832 22-855); experiment: flow cytometry, HEK293/hDDR2
T4 construct: whole, on cells; also called hDDR2
T4 sequence (looked up): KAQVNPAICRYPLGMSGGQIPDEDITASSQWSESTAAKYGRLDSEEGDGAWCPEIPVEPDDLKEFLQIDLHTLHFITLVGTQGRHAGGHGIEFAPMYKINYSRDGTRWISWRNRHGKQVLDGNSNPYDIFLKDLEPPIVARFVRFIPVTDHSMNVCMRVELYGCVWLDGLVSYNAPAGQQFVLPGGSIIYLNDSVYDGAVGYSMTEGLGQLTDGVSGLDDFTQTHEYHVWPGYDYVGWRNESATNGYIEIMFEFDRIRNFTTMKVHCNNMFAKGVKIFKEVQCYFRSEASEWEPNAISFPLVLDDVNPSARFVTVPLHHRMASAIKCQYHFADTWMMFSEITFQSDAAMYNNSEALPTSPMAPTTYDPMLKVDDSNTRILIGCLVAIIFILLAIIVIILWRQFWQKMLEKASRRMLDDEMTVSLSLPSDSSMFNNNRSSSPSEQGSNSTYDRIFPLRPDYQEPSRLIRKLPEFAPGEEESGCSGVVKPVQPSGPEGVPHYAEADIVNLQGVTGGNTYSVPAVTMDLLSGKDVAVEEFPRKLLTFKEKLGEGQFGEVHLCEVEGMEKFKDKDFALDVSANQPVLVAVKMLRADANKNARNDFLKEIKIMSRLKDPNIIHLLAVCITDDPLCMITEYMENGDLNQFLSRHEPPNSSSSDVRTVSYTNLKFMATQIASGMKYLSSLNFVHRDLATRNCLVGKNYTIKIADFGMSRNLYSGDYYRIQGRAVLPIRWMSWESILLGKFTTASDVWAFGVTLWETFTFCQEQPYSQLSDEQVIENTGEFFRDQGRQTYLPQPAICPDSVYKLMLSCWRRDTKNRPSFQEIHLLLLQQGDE
Procedure, shortened: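 Anti-DDR1 mAbs or isotype controls (2 μg per 1×10⁶ cells) were incubated with the stably transfected HEK293 cells at 4 °C for 1 hr, then detected with anti-IgG-PE at 4 °C for 1 hr. Binding was read as flow-cytometry MFI, with vector-only HEK293 background subtracted.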

[8] = target: DDR1 endogenously expressed on human cancer cell lines (T47D, HCT-116, A431) (human) (UniProt Q08345); experiment: cell-based or functional assay

Chain of human DDR1 (isoform B) stably expressed on HEK293 cells (human) (Q08345 19-913): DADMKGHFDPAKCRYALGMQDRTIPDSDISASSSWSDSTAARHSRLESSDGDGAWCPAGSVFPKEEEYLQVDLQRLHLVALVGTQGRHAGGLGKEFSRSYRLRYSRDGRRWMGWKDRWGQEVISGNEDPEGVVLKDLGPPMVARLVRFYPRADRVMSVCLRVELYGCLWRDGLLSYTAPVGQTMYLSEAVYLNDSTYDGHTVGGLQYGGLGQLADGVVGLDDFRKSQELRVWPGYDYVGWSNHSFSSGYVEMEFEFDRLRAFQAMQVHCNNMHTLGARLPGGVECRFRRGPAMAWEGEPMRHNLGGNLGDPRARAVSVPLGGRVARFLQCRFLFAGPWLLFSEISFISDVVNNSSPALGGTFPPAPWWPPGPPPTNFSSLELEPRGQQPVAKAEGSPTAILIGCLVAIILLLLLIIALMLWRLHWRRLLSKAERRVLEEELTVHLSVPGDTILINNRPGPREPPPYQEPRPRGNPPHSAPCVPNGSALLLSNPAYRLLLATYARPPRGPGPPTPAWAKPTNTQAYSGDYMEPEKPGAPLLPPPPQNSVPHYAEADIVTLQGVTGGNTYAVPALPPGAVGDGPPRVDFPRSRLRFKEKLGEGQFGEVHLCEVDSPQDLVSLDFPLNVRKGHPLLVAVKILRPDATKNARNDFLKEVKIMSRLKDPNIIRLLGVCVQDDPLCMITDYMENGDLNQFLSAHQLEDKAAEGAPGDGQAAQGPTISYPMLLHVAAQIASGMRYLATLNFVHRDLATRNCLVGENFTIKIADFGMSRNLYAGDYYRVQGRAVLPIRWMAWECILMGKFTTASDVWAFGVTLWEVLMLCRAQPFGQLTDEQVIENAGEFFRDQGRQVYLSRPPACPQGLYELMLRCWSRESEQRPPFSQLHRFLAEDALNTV

B1: AB2002 (antibody, V domains shown)
VH: EVNLVESGGGLVKPGGSLKLSCAASGFTFSTYAMSWVRQTPEKRLEWVASISSGGITHYPDSMKGRFTVSRDNARNILYLQMRSLRSEDTAKYYCARGRSSMIPDYWGQGTSVSVSS
VL: DIVMTQSHKFMSTSVGDRVSITCKASQDVGTAVAWYQQKPGQSPKLLIYWASTRHTGVPDRFTGSGSGTDFTLTISNVQSEDLADYFCQQYSTYPLTFGAGTKLELKR
notes: mouse hybridoma mAb
- Kd [1]: 0.233 nM
- Mean EC50, DDR1 Tyr513 phosphorylation assay (U20S) [2]: 4.5 nM
- MFI [3]: 7240 MFI
- MFI [4]: 1010 MFI
- binding result (mouse ECD-DDR1-Fc): no binding
- MFI [5]: 3590 MFI
- Kd [6]: 0.268 nM
- MFI [7]: 170 MFI
- EC50, DDR1 phospho-specific ELISA (T47D) [8]: 1.07 nM
- EC50, cluster formation assay (A431 cells) [8]: 9.72 nM
- Maximal inhibition, DDR1 phospho-specific ELISA (T47D) [8]: 100%
- NPI of cluster formation at 66 nM (A431 cells) [8]: 102%
